Assay: soluble on expression in E. coli; label from the status in PepcDB or PDB records

Row | Sequence | soluble on expression in E. coli
1 | MGSDKIHHHHHHMREDIVVIGGYGQVGRAICRLLARRYAGRVYAAGRNFEKANRFSLETDGEVQPLQVDIHQPKKAFEALNQPKVVIVCIDQDHTEFARLCAKNGIDYLDITANGKFLKELGGLNRGAVKHTGVISVGLAPGITNLLVEQAVRMFEQVHQVDISILLGLGDEHGVGAMEWTFQQINQSFDVMVQNDWRQVKSFTDRKQVSFGKAIGNHSVYRFPFSDQQTLARTLHLPTVSTRLCFDSRLVTAVVATMRRLHITKLLSLPAVRKVLTTLLNVFPYGSEQYGVRVEVKGVRKDEKEEVYSLFTGENEALMTAHVASAVAFALYEHPCPKGVFHIEELFELVFIDQHISLTLKGTEFSYPLPTPKQFVQNETSICSQNHS | not soluble
2 | MSLVVKVKQKIPLKIKRMGINGEGIGFYQKTLVFVPGALKGEDIFCQITAVKRNFAEAKLLTVNKASKNRVKPACSVYETCGGCQIMHLAYPKQLDFKDDVIRQALKKFKPTGYEQFEIRPTLGMKKPDHYRAKLQFQLRSFGGTVKAGLFSQGSHRLVPIDNCLVQDQLTQDIINKITQLVDKYKLPIYNERKIAGIRTIMVRKAQASDQVQIIVVSSKEVRLANFIGELTKAFPQVKTVALNSNRSKSSEIYGDETEILWGQEAIHEEVLDYGFALSPRAFYQLNPQQTEVLYGEVVKALDVGSKDHIIDAYCGVGSIGFAFAGKVKSVRGMDIIPEAIEDAQKNAKAMGFDNAYYEAGKAEDIISKWYKQGYRADAVIVDPPRTGLDDKLLKTILHYQPKQMVYVSCNTSTLARDLVQLTKVYDVHYIQSVDMFPHTARTEAVVKLQKRVEGHHHHHH | not soluble
3 | MAHHHHHHMRERKPIRKMKRSRVSDQIIRVEEPDAEEGEASPAKATPVPHFSDRRICINVGGEYITTLASTLCSEPSKFSEWVENNFQGLPRDSMGNPFIDRDPENFRQIISYLRGYELPTATEKIVFLAEDAEYYHIDRLLALINPPAEWRFVSGPGVSSSRKEFSTENILATCGNEPLPQVGKSVFLLRIDKCELVSIGLVGTESPDHDEPLERQTNAIAYRSTGELIRSLNSSSTFFSGNGYKGRDTVMVQVLFKPEGAAQIEFFCNDVKTHETEWLSPVPPLRFAVSLHGVSAVVIERCVAGVKDEDM | not soluble
4 | MGSDKIHHHHHHENLYFQGMRDHVEIGIGREARRTYSLDDISVVSSRRTRSSKDVDTTWHIDAYKFDLPFMNHPSDALASPEFVIEMGKQGGLGVINAEGLWGRHADLDEAIAKVIAAYEEGDQAAATRTLQELHAAPLDTELLSERIAQVRDSGEIVAVRVSPQNVREIAPIVIKAGADLLVIQGTLISAEHVNTGGEALNLKEFIGSLDVPVIAGGVNDYTTALHMMRTGAVGIIVGGGENTNSLALGMEVSMATAIADVAAARRDYLDETGGRYVHIIADGSIENSGDVVKAIACGADAVVLGSPLARAEEAAGKGYFWPAVAAHPRFPRGVVTESVDLDEAAPSLEQILHGPSTMPWGVENFEGGLKRALAKCGYTDLKSFQKVSLHVN | soluble
5 | HHHHHHHSEMTPREIVSELDKHIIGQDNAKRSVAIALRNRWRRMQLNEELRHEVTPKNILMIGPTGVGKTEIARRLAKLANAPFIKVEATKFTEVGYVGKEVDSIIRDLTDAAVKMVRVQAIEKNRYRAEELAEERILDVLIPPAKNNWGQTEQQQEPSAARQAFRKKLREGQLDDKEIEIDLAAAPMGVEIMAPPGMEEMTSQLQSMFQNLGGQKQKARKLKIKDAMKLLIEEEAAKLVNPEELKQDAIDAVEQHGIVFIDEIDKICKRGESSGPDVSREGVQRDLLPLVEGCTVSTKHGMVKTDHILFIASGAFQIAKPSDLIPELQGRLPIRVELQALTTSDFERILTEPNASITVQYKALMATEGVNIEFTDSGIKRIAEAAWQVNESTENIGARRLHTVLERLMEEISYDASDLSGQNITIDADYVSKHLDALVADEDLSRFIL | soluble
6 | MSYSDLLRELAAAHAISSSYSGFGGAHVEVSDDTLVKTLRSLGVCFGNEDEPATDHEPLTGPMPSEDQIRYALQQRYDAEATRPLPRCVVAVEGDPYVFNVHVHDGAPADITITLEDGSTAEVTQVENWAPPREVDGITWGEASFQLPSDLPLG | not soluble
7 | MGSDKIHHHHHHMLLSMQGICKSFNGIPALRAASLEVGEAEVMALVGQNGAGKSTLIKILTGAYRRDEGAVVFAGEGVSFSMPAESQARGIATIYQEINLAPQRSVAENIYLSREPRRFGLIDRRAMRDGAAAVLRAFNLEIDVDQPVAGFSAATRQMVAIARAVTQKARLVIMDEPTSSLDEREVGILFDTIRTLKRGGVSVVFIGHRLEELYRICDRVTIMRDGKTVATAAMADMPKLALVRHMLGKELAAFEAIAKDADEGAQRPVRLSVRNAGAGVRVRDVSLTVREGEISGLAGLLGSGRTETANLIFGADRLQRGEIRYNGEARAYRQPADAIADGIGLVAEDRKVDGIIPDMSIRENMTLALLPKLARAGIVDRARQDEIVERYITALAIKCTSPDQPIKELSGGNQQKVLLGRWLCTDPKLLIVDEPTRGIDIGAKSEILRLLRRLADEGLGVLMISSELEELLAAADRVTVLSDGTSVAVLPRKELSEAALFAAMAHQVE | not soluble
8 | MSLINTQRLVDHFLQLIQIDSESGNEKKIAETLAEQLGELGFTVHKLPVPAEVSNGFNLYARLEGTLNDSILFSCHMDTVKPGIGIEPVIEDGIIRSKGNTILGGDDKSGIAAILEAVRVLRDSQQAHKTIEIAFTVHEEGGLKGSEHFDMSKVQAEKAIVLDTGGPIGTIVRAAPGQQKIVALIKGKPAHAGLVPEDGISAIAVAADAITQMKLLRIDEETTANIGIVQGGQATNIVMPELKIVAEARSLNDAKLEAQVQHMIETFERAAEKHGATVEIESTRAYNAFKLEEDNAHIQAIKASFETIGIEPKTKLSGGGSDANNFNAKGLTTVNLSTGMAKVHTTEEYIAIADMVKIAEFVCAYTTA | not soluble
9 | MGSDKIHHHHHHMDPTTMPAPAPINYSQTWTFFEGEWHDGNVPIMGPRTHAAWLGSMVFDGARAFEGVTPDLDQHLARINWSATNFKLNALVDKATWLGLVQDGLKRFAGNAELYIRPMYWAQNGVGGGVLFDPDTTNWCLCIYEAPMPKPTGLSITLSPFRRPTAECAPVEAKAGCLYPNNSRAMMEAKSRGFDNCLLRDMLGHIAELGNSNIFMAKDGVVYTPAANGTFLSGITRQRVIELLRGDGITVLETSLSYRDFETADEIFASGNFAKVQPIIRIDDRSLQPGPFYAKARKLYWEFAHG | not soluble
10 | SWMANQFFLLEEYTGSDYQYVGKLHSDQDRGDGSLKYILSGDGAGDLFIINENTGDIQATKRLDREEKPVYILRAQAVNRRTGRPVEPESEFIIKIHDINDNEPIFTKDVYTATVPEMADVGTFVVQVTATDADDPTYGNSAKVVYSILQGQPYFSVESETGIIKTALLNMDRENREQYQVVIQAKDMGGQMGGLSGTTTVNITLTD | soluble
11 | MKIVCSKEQLMEGINVVQKAVPTKATLTILEGILLEAYDNFKMTGNDLELGIECLIDADILEKGSIVLNSKMFGDIVRRLPDSEVLIEVKENNTVIIECDNSHFELRGMPSDSFPSLPSIEKENMIKVSQKAIRDMIRQTLFAVSTEGTRPILTGSLIECAGNEITFVSIDGFRMALRKNFNNEGFSEFSVVVPAKTLSEIGKILQPVDEDIYIYSSQNQILFEIGNCKVVSRLLEGEYLNYKSIIPPEYETSVRLRTEDLLSSLERASLITSDEKKYPVKFNIIDDKIIITSNTEIGAVREEIRVEVNGSNMEVGFNPRYFIEALRVIDDELVDIYFNSSVGPCTIRPLEGDSFAYMILPVRINK | soluble
12 | MMKPSVSAAILAAGTSTRMNEMKQLAKIQGTYMLKYVIDQVSNHPFQHIFVIVGHQADIVMKMIQVEDKRVQWLVNDQYKQGQSTSFKLAMEQARQYGDAVMMFLADQPLIEKETVNIVLNEGITRVQEEPFIVRPMYEKKEGHPVYWGNIHALDCSAVNGDKGGKTLMEELERMLIPVHDQGVLVDVDTCEDYKKVNDLMKRKSPSTHLEHHHHHH | not soluble
13 | EKVKNSDYTFEVDFEGPFFPIVEGVNSFGKRMYRVAPQVLRVPLEKPETRVISDIKNGEVLVYVFIQSPEGVVPVSLNLEGKRFRFFNLEGKWICVFKSFLEDGAHELEITFNGPYGYTFSLKKEIYVIKRVAVPMRGEDGAFDYTVFAEHVVKRGETLWSIANQYGVRVGDIVLINRLEDPDRIVAGQVLKIGRVYFRENPVTIVVNLFSSKLALYYDGVLLKVYPVALGRSDATPPGRYWVLRKEIDPALYWFGEYISPRTPLNGLGTRYLQLSDPTYAIHGTSKPWEIGKRISHGCIRMFNRDVEEIDAFAGVGTEVVVVKEDKEFPERIY | not soluble
14 | MTDVIKPDYLEYDDLLDRDEMFTILEEYFMYRGLLGLRIKYGRLFNEIKKFDNDAEEQFGTIEELKQKLRLNSEEGADNFIDYIKVQKQDIVKLTVYDCISMIGLCACVVDVWRNEKLFSRWKYCLRAIKLFINDHMLDKIKSILQNRLVYVEMSKHHHHHH | soluble
15 | MEFTAEQLSQYNGTDESKPIYVAIKGRVFDVTTGKSFYGSGGDYSMFAGKDASRALGKMSKNEEDVSPSLEGLTEKEINTLNDWETKFEAKYPVVGRVVS | soluble
16 | MGRPRVARLDRERIAEAALELVDRDGDFRMPDLARHLNVQVSSIYHHAKGRAAVVELVRHRVVREIDGSAFERLPWDEAFSEWARSYRAAFSRHPTAIRLLATETVRDPGSLSVYHSAAAGLRGAGFPDDHIMAVITAAENFLLGAALDAAAPEVMIEADSTTTDDALTRALAAAPRGPERAEQAFELGLAALLAGFHHLLQECGAVQR | soluble
17 | MEEHPKILSIAGSDSCAGAGMQADLKTAMSLGCHCCTILVVLTAQNTKEVKSIIEVDEKFIVEQLDAIFTDITIEVVKLGVLYSKKIISLIHNYITNINKMREKKLLVVFDPVFVSSSGCMLVENLDYVKYALDLICPLSCIITPNFYECKVILEALNFNIDINNMRTSDLCKLVTEKLNINACLFKSCNIDINTEDENKLYAVDHLCIKNDNDYDTKIKQNISYDVYKLKSKRNPQKDIHGTGCTLSTAISCFLSKKYDIIQACIESKKYIYNCINYAYDLGSKSQGLNHLKAAQHLTDFRELQVIKVD | not soluble
18 | MADLSSRVNELHDLLNQYSYEYYVEDNPSVPDSEYDKLLHELIKIEEEHPEYKTVDSPTVRVGGEAQASFNKVNHDTPMLSLGNAFNEDDLRKFDQRIREQIGNVEYMCELKIDGLAVSLKYVDGYFVQGLTRGDGTTGEDITENLKTIHAIPLKMKEPLNVEVRGEAYMPRRSFLRLNEEKEKNDEQLFANPRNAAAGSLRQLDSKLTAKRKLSVFIYSVNDFTDFNARSQSEALDELDKLGFTTNKNRARVNNIDGVLEYIEKWTSQRESLPYDIDGIVIKVNDLDQQDEMGFTQKSPRWAIAYKFPAEEHHHHHH | soluble
19 | MSLSKIKWWEMSRSFVLDEPETAILQIKPFPLPGLAQVPARIVLSQYRGLFYLNAYQDLDYQQRIYKSAPLPLLSPEDLRNCVSPDNPIQVSDNWPPSNTLDTGITLTPLGFDCSVPPQWQLSLRYLLIDQRDPQHPLLAISHRQDMTQMDFTPLQPISVETGQQWLQALQKFPPWFRAFDSGSGPITLNAYTPPATADSVWKQFRALHEQLRTAKDKGPGIRQVEDFFALHDYRSIAIDHSEYPGLLNDIAYWTSEAGQLNTARNWLLEVLRRDLGRMPTYLNLADLDWALFEQRPLDNIHQGRAIEGYRLYCGMRLQRQMSVPPRVLKRLGLESANPQACQGFWPLVAAADAGDEAEVRRLLASGVSGEVMAEDGRSALLHALDAPHLEIARLLLAHGAHTSGQYQWSTLAMLAMQRDLKDSPDLNQGGRLKFLLQAGVAIDEPNSRGQTPLMKLAEQERNLQGFTWLLQHPQNLDLRTVDDGETALYRAFWSNNYPAMKLLIEAGADLNLSYGRGTCGNEPMGQSLLMLVADKISPDQHSPIVSMQDTLDMFTLLLEKGADPNVGQRCEKKGRPLLLEIIARKKRDDMLKVLQGFAPPAPATAFREGHHHHHH | not soluble
